Where no end group is shown, it is not given here. The star is where a group is joined. 5FAM = O=C1OC2(c3ccc(O)cc3Oc3cc(O)ccc32)c2ccc(C(=O)*)cc21
Assays:
Assay in all cases: FP
[1] = target: T1, MBP-SNX17 D467X (UniProt Q15036 1-466)
T1 chain: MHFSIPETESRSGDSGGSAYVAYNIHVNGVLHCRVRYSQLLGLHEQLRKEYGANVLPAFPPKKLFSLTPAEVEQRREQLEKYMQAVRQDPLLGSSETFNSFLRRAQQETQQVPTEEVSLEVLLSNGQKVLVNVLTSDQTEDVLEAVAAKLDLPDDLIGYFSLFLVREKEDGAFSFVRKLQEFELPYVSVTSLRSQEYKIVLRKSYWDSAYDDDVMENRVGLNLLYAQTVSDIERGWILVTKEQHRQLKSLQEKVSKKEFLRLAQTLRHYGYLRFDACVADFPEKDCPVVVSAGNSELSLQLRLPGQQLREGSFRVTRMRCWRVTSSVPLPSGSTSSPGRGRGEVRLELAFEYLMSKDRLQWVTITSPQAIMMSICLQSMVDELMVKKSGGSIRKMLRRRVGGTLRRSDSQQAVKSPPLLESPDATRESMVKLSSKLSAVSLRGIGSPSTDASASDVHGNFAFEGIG

[2] = target: T2, MBP-SNX17 (full-length, wild-type) (UniProt Q15036 1-470)
T2 chain: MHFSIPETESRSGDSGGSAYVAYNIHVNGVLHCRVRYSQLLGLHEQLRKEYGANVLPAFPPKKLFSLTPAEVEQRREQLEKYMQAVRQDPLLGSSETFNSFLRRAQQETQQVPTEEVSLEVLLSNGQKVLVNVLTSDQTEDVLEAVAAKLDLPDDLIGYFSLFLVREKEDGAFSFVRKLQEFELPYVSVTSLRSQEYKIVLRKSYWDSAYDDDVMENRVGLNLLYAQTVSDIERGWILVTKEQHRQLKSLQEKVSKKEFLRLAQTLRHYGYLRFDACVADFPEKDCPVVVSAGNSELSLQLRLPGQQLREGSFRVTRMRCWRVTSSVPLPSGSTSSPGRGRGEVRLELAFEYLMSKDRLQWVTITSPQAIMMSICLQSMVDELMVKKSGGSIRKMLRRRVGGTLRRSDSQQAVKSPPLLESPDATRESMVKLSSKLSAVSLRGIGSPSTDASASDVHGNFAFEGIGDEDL

[3] = target: T3, MBP-SNX17 L470G (UniProt Q15036 1-470, L470G)
T3 sequence: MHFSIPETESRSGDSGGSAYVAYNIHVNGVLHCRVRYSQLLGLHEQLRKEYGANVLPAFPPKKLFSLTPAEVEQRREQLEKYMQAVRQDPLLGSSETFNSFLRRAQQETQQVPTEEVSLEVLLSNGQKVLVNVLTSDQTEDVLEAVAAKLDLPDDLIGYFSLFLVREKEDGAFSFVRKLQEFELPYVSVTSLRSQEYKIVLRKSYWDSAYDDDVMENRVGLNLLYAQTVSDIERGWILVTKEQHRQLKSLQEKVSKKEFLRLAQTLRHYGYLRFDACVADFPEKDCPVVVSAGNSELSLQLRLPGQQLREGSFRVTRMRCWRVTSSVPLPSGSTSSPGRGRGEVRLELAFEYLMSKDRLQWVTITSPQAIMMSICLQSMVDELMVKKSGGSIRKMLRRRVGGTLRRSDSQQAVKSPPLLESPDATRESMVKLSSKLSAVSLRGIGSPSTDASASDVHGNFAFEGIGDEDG

5FAM-MNVEIGNPTYKMYE [Peptide LRP1_(14mer)]
Kd [1]: 8500 nM
Kd [2]: 3000 nM
Kd [3]: 2800 nM

5FAM-KLITYDNPAYEGID [Peptide L2_(14mer)]
Kd [1]: 3200 nM
Kd [2]: 1100 nM
Kd [3]: 1100 nM

Source: paper PMC11772769 (2024)
